The text below walks through data of patent US4423037A, “Inhibitors of peptide hormone action” (The General Hospital Corporation, priority 1982, dated 1983).

This experiment deals with parathyroid hormone. The experiment can be described thus: In vivo inhibition of PTH-stimulated urinary cyclic AMP excretion in thyroparathyroidectomized vitamin D deficient rats. Particulars: same experiment as FIG. 1. How it is done:
The compound [Tyr-34]bPTH(7-34)amide was administered in vivo as an inhibitor of PTH stimulated biological activities. The effectivenss of the treatment was measured by measuring the urinary phosphate and cyclic AMP, standard procedures well known in endocrinology as valid measure of PTH activity. The dosage of PTH analogues used varied from more than 3.0 μg/Kg/hr to less than 15 mg/Kg/hr, optimally between 0.3 mg/Kg/hr and 1.5 mg/Kg/hr. Single bolus dosages were occassionally utilized as indicated containing the equivalent of many hours of the infusion procedure.
Male weanling Holtzman rats were maintained on a purified vitamin D deficient diet containing 0.44% calcium and 0.30% phosphorous for 7 weeks. At this time, the rats weighed 130-170 g. Thyroparathyroidectomy of the vitamin D deficient rats was preformed under anesthesia with ketamin hydrochloride injected intratraperitoneally. The femoral vein was cannulated with a heparin-treated polyethylene tube, and the blood was collected via the catheter for determination of blood chemistries. When needed both femoral veins were cannulated. A polyethylene catheter was also inserted into the urinary bladder via the ventral approach. […]
FIG. 2 is an experiment identical to that shown in FIG. 1, however, urinary cyclic AMP is now measured instead of urinary phosphate. […]

B1: bovine parathyroid hormone (protein, UniProt P01268 32-115, looked up)
Parathyroid hormone: AVSEIQFMHNLGKHLSSMERVEWLRKKLQDVHNFVALGASIAYRDGSSQRPRKKEDNVLVESHQKSLGEADKADVDVLIKAKPQ
modifications: Parathyroid hormone
notes: native 84-amino acid bovine parathyroid hormone, infused as the agonist
In the case of B1, the “effect on urine cyclic AMP production, substance administered alone (FIG. 2)” value is “marked effect”.
